In US20240067711A1 (MEDYTOX, published 2024):

Experiments:
[1] = target: human VEGF (hVEGF), isoform not stated (human, UniProt P15692-4 27-191, limits assumed); experiment: ELISA on coated hVEGF (500 ng/ml), detection with anti-hIgG-Fc HRP, A450
Procedure: ELISA was performed to confirm the binding ability to VEGF. First, 100 μl of hVEGF was added to an immunoplate at a concentration of 500 ng/ml and caused to react at room temperature for 1 hour. 2% skim milk was dissolved in PBST, and then, 200 μl thereof was added onto the VEGF-coated wells and the reaction was caused to occur at room temperature for 2 hours. After the reaction, the well was washed three times using 300 μl of PBST, and then, Hz2, AAA0289, AAA0308, AAA0589, AAA0592, and AAA0600, which were purified above, were diluted starting from at a concentration of 100 ng/ml by two-fold to make a total of 11 samples. The samples were placed on the VEGF-coated well and the reaction was caused to occur at room temperature for 20 minutes. After the reaction, the well was washed three times using 300 μl of PBST, and then, anti-hIgG-Fc HRP (1:3000, Thermo) was added thereto at 100 μl/well and then reacted for 30 minutes. Then, the well was washed three times as described above, and the TMB (BioFx company) solution was added thereto at 100 μl/well to develop color at room temperature for 5 minutes. After the color development, 2N sulfuric acid was added at 50 μl/well to stop the color development, and the absorbance was measured at 450 nm, and results are shown in FIGS. 4A and 4B.

[2] = target: T1, recombinant human VEGF165 (human, UniProt P15692-4 27-191); experiment: cell-based or functional assay
[3] = target: T1, recombinant human VEGF165; experiment: Octet red96E BLI, human VEGF165 amine-coupled on AR2G sensor, hexamer as analyte (0.0625-0.6 nM), 30° C.
Procedure: (§1) Affinity for VEGF was determined as follows. Octet red96E was used, and human VEGF immobilized on the biosensor AR2G was interacted with AAA0308, AAA0589, AAA0592, and AAA0600 used as analytes, and binding and dissociation values thereof were compared and measured. As human VEGF, recombinant human VEGF165 (Sinobiological company) was used, and VEGF was immobilized on the AR2G sensor chip by an amine coupling method. At this time, the amount of VEGF used was 10 μg/ml, and the degree of coating was confirmed using a wavelength of 5 nm.
(§2) During measurement, the rotation speed was set to 100, and the temperature was measured at 30° C.
(§3) The concentration of the sample was adjusted using a kinetic buffer (Molecular Device Co.). The antibody solution of each concentration was used as a binding phase for 5 minutes, and then switched to a kinetic buffer to form a dissociation phase for 30 minutes.

[4] = target: T1, recombinant human VEGF165; experiment: cell-based or functional assay; remark: listed apart in the source
[5] = target: T1, recombinant human VEGF165; experiment: Octet red96E BLI, human VEGF165 amine-coupled on AR2G sensor, hexamer as analyte (0.0625-4 nM), 30° C.
Procedure: as §1, §2, §3

[6] = target: T2, FcγRI (R&D system company, 1257-Fc) (UniProt P12314 16-288); experiment: Octet; FcγRI loaded on anti-penta-His biosensor, antibody 100 nM as analyte
[7] = target: T2, FcγRI (R&D system company, 1257-Fc); experiment: Octet; FcγRI loaded on anti-penta-His biosensor, antibody 100 nM as analyte, 2 min association and 2 min dissociation
Procedure: Binding evaluation for FcγR I, II, and III was performed as follows. Octet red96E was used, and […] FcγRI(R&D system company, 1257-Fc), […] FcγRII(R&D system company, 1597-CF), and […] FcγRIII(R&D system company, […]) were each loaded on the anti-pentia his biosensor, and a signal of about 5 nm was confirmed. In order to identify the reactivity of AAA0589 and AAA0592 to FcγRI, FcγRII, and FcγRIII, binding force was measured using an antibody concentration of 100 nM as an analyte. During measurement, rpm was set to 100, and the temperature was measured at 30° C. Samples were diluted using kinetic buffer (Molecular Device Co.). The antibody solution of each concentration was used as an association phase for 2 minutes, and then converted to a kinetic buffer to form a dissociation phase for 2 minutes.

T2 sequence (P12314 16-288 limits assumed): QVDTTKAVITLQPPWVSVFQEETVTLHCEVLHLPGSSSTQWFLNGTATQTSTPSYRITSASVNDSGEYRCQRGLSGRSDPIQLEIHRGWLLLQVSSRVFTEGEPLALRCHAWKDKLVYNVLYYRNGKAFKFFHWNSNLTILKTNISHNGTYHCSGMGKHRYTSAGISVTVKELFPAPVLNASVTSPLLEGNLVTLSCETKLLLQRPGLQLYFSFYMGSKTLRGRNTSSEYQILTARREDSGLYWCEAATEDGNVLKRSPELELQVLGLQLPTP
T1 sequence (P15692 other isoform, or with tags, fused parts or gaps limits assumed): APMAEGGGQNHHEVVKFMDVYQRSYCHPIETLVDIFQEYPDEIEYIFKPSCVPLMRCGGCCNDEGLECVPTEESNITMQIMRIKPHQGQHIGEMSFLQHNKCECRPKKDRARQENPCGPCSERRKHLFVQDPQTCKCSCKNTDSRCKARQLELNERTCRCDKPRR
Sequence of human VEGF (hVEGF), isoform not stated (P15692 other isoform, or with tags, fused parts or gaps limits assumed): as above

Binder	EC50 (read off the curve) [1] [nM]	IC50 of inhibition of the VEGF-induced calcium increase in HUVEC cells [2] [nM]	Kd [3] [nM]	IC50 (read off the curve) [4] [nM]	Kd [5] [nM]	koff [5] [s⁻¹]	kon [5] [M⁻¹ s⁻¹]	binding result [6]	binding result [7]
Hz2 humanized anti-VEGF antibody (monomer) (antibody, V domains shown) VH: EVQLVESGGGLVQPGGSLRLSCAVSGIDLNRYSLTWIRQAPGKGLEWVAIVGGSGVTYYANWAKGRFTISRDDSKNTLYLQMNSLRAEDTAVYYCARGSDRSAYAPDIWGQGTLVTVSS VL: DIQLTQSPSSLSASVGDRVTITCQSSQSIYSNNYLAWYQQKPGKAPKLLLYQASKLASGVPSRFSGSGSGTDFTLTISSLQPEDFATYYCLGVYDDDADNAFGQGTKVEIKR	~0.02	–	–	–	–	–	–	–	–
Aflibercept CL kappa hexamer AAA0600 (Fc fusion) SDTGRPFVEMYSEIPEIIHMTEGRELVIPCRVTSPNITVTLKKFPLDTLIPDGKRIIWDSRKGFIISNATYKEIGLLTCEATVNGHLYKTNYLTHRQTNTIIDVVLSPSHGIELSVGEKLVLNCTARTELNVGIDFNWEYPSSKHQHKKLVNRDLKTQSGSEMKKFLSTLTIDGVTRSDQGLYTCAASSGLMTKKNSTFVRVHEKTVAAPRTVAAPSVFIFPPSDEQLKSGTASVVCLLNNFYPREAKVQWKVDNALQSGNSQESVTEQDSKDSTYSLSSTLTLSKADYEKHKVYACEVTHQGLSSPVTKSFNRGESDKTHTCPPCPAPEAAGGPSVFLFPPKPKDTLMISRTPEVTCVVVDVSHEDPEVKFNWYVDGVEVHNAKTKPREEQYNSTYRVVSVLTVCLQDWLNGKEYKCKVSNKALPAGIEKTISKAKGQPREPQVYTLPPSRDELTKNQVSLTCLVKGFYPSDIAVEWESNGQPENNYKTTPPVLDSDGSFFLYSKLTVDKSRWQQGNVFSCSVMHHALHNHYTQKSLSLSPGKPTLYNVSLVMSDTAGTCY	~0.04	0.2	0.00203	~0.2	–	–	–	–	–
Lu007-F hexamer AAA0592 (antibody, human IgG1, kappa, L234A L235A, also called Lu007 hexamer AAA0592) heavy: EVQLVESGGGLVQPGGSLRLSCAASGYDFTHYGMNWIRQAPGKGLEWVGWINTYTGEPTYAADFKRRFTFSLDTSKSTVYLQMNSLRAEDTAVYYCAKYPHYYGTSHWYFDVWGQGTLVTVSSASTKGPSVFPLAPSSKSTSGGTAALGCLVKDYFPEPVTVSWNSGALTSGVHTFPAVLQSSGLYSLSSVVTVPSSSLGTQTYICNVNHKPSNTKVDKKVEPKSCDKTHTCPPCPAPEAAGGPSVFLFPPKPKDTLMISRTPEVTCVVVDVSHEDPEVKFNWYVDGVEVHNAKTKPREEQYNSTYRVVSVLTVCLQDWLNGKEYKCKVSNKALPAGIEKTISKAKGQPREPQVYTLPPSRDELTKNQVSLTCLVKGFYPSDIAVEWESNGQPENNYKTTPPVLDSDGSFFLYSKLTVDKSRWQQGNVFSCSVMHEALHNHYTQKSLSLSPGKPTLYNVSLVMSDTAGTCY light: not shown	~0.09	0.2	–	~0.3	< 0.001	< 1e-07	666000	no binding (tested: 100 nM)	–
Hz2-F hexamer AAA0589 (antibody, human IgG1, kappa, L234A L235A, also called hexameric antibody AAA0589) heavy: EVQLVESGGGLVQPGGSLRLSCAVSGIDLNRYSLTWIRQAPGKGLEWVAIVGGSGVTYYANWAKGRFTISRDDSKNTLYLQMNSLRAEDTAVYYCARGSDRSAYAPDIWGQGTLVTVSSASTKGPSVFPLAPSSKSTSGGTAALGCLVKDYFPEPVTVSWNSGALTSGVHTFPAVLQSSGLYSLSSVVTVPSSSLGTQTYICNVNHKPSNTKVDKKVEPKSCDKTHTCPPCPAPEAAGGPSVFLFPPKPKDTLMISRTPEVTCVVVDVSHEDPEVKFNWYVDGVEVHNAKTKPREEQYNSTYRVVSVLTVCLQDWLNGKEYKCKVSNKALPAGIEKTISKAKGQPREPQVYTLPPSRDELTKNQVSLTCLVKGFYPSDIAVEWESNGQPENNYKTTPPVLDSDGSFFLYSKLTVDKSRWQQGNVFSCSVMHHALHNHYTQKSLSLSPGKPTLYNVSLVMSDTAGTCY light: DIQLTQSPSSLSASVGDRVTITCQSSQSIYSNNYLAWYQQKPGKAPKLLLYQASKLASGVPSRFSGSGSGTDFTLTISSLQPEDFATYYCLGVYDDDADNAFGQGTKVEIKRTVAAPSVFIFPPSDEQLKSGTASVVCLLNNFYPREAKVQWKVDNALQSGNSQESVTEQDSKDSTYSLSSTLTLSKADYEKHKVYACEVTHQGLSSPVTKSFNRGEC	~0.04	0.2	–	~0.2	< 0.001	< 1e-07	208000	no binding (tested: 100 nM)	–
Omal013 (positive control antibody) (antibody, human IgG1, kappa, also called positive control group) heavy: not shown light: DIQLTQSPSSLSASVGDRVTITCQSSQSIYSNNYLAWYQQKPGKAPKLLLYQASKLASGVPSRFSGSGSGTDFTLTISSLQPEDFATYYCLGVYDDDADNAFGQGTKVEIKRTVAAPSVFIFPPSDEQLKSGTASVVCLLNNFYPREAKVQWKVDNALQSGNSQESVTEQDSKDSTYSLSSTLTLSKADYEKHKVYACEVTHQGLSSPVTKSFNRGEC	–	–	–	–	–	–	–	–	binds
